Reference: US20260217797A1

Experiments:
[1] = target: SARS-CoV-2 B.1.617.1 (Kappa) RBD (SARS-CoV-2) (UniProt P0DTC2); test: Octet BLI single point, monovalent
[2] = target: SARS-CoV-2 B.1.617.2 (Delta) RBD (SARS-CoV-2) (UniProt P0DTC2); test: Octet BLI single point, monovalent
[3] = target: SARS-CoV-2 Gamma (P.1) spike protein (on reporter virus particles) (SARS-CoV-2) (UniProt P0DTC2); test: cell-based or functional assay
[4] = target: SARS-CoV-2 Beta (B.1.351) spike protein (on reporter virus particles) (SARS-CoV-2) (UniProt P0DTC2); test: cell-based or functional assay
[5] = target: SARS-CoV-2 Epsilon (B.1.427/429) spike protein (on reporter virus particles) (SARS-CoV-2) (UniProt P0DTC2); test: cell-based or functional assay
[6] = target: SARS-CoV-2 Alpha (B.1.1.7) spike protein (on reporter virus particles) (SARS-CoV-2) (UniProt P0DTC2); test: cell-based or functional assay
[7] = target: SARS-CoV-2 B.1.351 (Beta) RBD (SARS-CoV-2) (UniProt P0DTC2); test: Octet BLI single point, monovalent
[8] = target: SARS-CoV-2 P.1 Spike (Gamma) (SARS-CoV-2) (UniProt P0DTC2); test: Octet BLI single point, monovalent

Substance | Kd [1] | Kd [2] | PsV neutralization IC50 [3] | PsV neutralization IC90 [3] | PsV neutralization IC50 [4] | PsV neutralization IC90 [4] | PsV neutralization IC50 [5] | PsV neutralization IC90 [5] | PsV neutralization IC50 [6] | PsV neutralization IC90 [6] | Kd [7] | Kd [8]
RGN10933 (antibody) | 12 nM | 2.7 nM | 3.89 µg/mL | 16.2 µg/mL | 0.897 µg/mL | 8.28 µg/mL | 7.4 ng/mL | 0.058 µg/mL | 6.4 ng/mL | 0.081 µg/mL |  | 
RGN10987 (antibody) | 3.05 nM | 9.65 nM |  |  |  |  |  |  |  |  | 15 nM | 12.5 nM
